The source of these data is paper PMC11254934.

This experiment concerns the target anti-fuc-PSA mAb 2E9 (rabbit). The experiment in a line: SPR; Biacore 8k, 37 °C, HBS-ET (10 mM HEPES pH 7.4, 150 mM NaCl, 3 mM EDTA, 0.005% Tween 20) with 1 mg/mL carboxymethyl dextran; rabbit IgG from culture supernatant captured by goat anti-rabbit Fcγ on CM5; peptides injected at 0, 11, 33, 100, 300, 900 nM; Langmuir fit. In general terms: In SPR one partner is held on a chip, and binding of the other changes the refractive index at the surface.

No end group written: not given here. *: point of attachment. G0F = octasaccharide N-glycan with core α-1,6-fucose, CC(=O)N[C@@H]1[C@@H](O)[C@H](O[C@@H]2O[C@H](CO)[C@@H](O[C@@H]3O[C@H](CO[C@H]4O[C@H](CO)[C@@H](O)[C@H](O)[C@@H]4O[C@@H]4O[C@H](CO)[C@@H](O)[C@H](O)[C@H]4NC(C)=O)[C@@H](O)[C@H](O[C@H]4O[C@H](CO)[C@@H](O)[C@H](O)[C@@H]4O[C@@H]4O[C@H](CO)[C@@H](O)[C@H](O)[C@H]4NC(C)=O)[C@@H]3O)[C@H](O)[C@H]2NC(C)=O)[C@@H](CO[C@@H]2O[C@@H](C)[C@@H](O)[C@@H](O)[C@@H]2O)O[C@H]1*

Sequence of anti-fuc-PSA mAb 2E9 (rabbit) (heavy, as listed by the source, chain 1 of 2): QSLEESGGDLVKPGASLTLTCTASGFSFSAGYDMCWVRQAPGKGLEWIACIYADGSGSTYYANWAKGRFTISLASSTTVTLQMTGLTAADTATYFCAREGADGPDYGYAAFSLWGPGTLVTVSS
Sequence of anti-fuc-PSA mAb 2E9 (rabbit) (light, as listed by the source, chain 2 of 2): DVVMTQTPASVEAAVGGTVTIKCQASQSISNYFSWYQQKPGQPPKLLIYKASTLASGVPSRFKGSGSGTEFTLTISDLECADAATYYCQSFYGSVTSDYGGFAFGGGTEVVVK

Usually Kd stands for the concentration at which binding is half-saturated. The low end stands for tighter binding, the high end for weaker binding. For orientation: stoichiometry N means the number of molecules, sites or subunits per partner or assembly. IRN(G0F)KSVILLGRHS [PSA(67–79)-G0F] displayed a BL (binding late) of 27 RU, a Kd of 0.6 nM, a stoichiometry N of 2 and a t1/2 (antibody–antigen complex half-life) of 10 min.
